Assay results: US20180051085A1 (published 2018)
Values belong to the binder of their own block, whether it stands above or below them.

How the values were obtained:
[1] = molecular target: T1, recombinant human PD-1-His (human, UniProt Q15116 25-167, limits assumed); assay: binding to recombinant human PD-1-His (FIG. 8)
T1 construct: also called recombinant PD-1-His; not shown: His tag

[2] = molecular target: T2, human PD-1 expressed on cells (human, UniProt Q15116 25-288); assay: binding to 2D1 cells transfected with human PD-1 (FIG. 9)
T2 construct: whole, on cells; also called SpESFX-2D1
T2 sequence (Q15116 25-288): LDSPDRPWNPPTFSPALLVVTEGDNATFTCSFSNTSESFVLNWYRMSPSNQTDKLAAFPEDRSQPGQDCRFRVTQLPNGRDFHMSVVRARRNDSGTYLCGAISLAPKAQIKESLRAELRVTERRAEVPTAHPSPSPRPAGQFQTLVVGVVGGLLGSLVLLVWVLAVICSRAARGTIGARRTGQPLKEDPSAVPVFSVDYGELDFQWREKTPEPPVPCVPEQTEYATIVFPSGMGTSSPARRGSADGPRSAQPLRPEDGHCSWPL

T1 sequence (Q15116 25-167 limits assumed): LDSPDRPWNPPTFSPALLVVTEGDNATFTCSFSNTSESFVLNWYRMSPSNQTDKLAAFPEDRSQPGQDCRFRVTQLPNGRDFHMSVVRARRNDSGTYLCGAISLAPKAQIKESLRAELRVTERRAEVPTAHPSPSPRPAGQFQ

- EC50 [1]: 0.043 nM
- EC50 [2]: 1.1 nM
B1: chimeric anti-PD-1 antibody 2G9 (IMMU-cPD-1) (antibody, V domains shown)
VH: VKLQESGGGLVKPGGSLKLSCAASGFAFSSNDMSWVRQTPEKRLEWVATISGGGINTYYPDSVKGRFTISRDNARNTLDLQMSSLRSEDTALYYCARRSNYAWFAYWGQGTPVTVSA
VL: not shown

- EC50 [1]: 0.148 nM
- EC50 [2]: 3.8 nM
B2: humanized anti-PD-1 antibody hPD-1-v5 (antibody, V domains shown)
VH: QVQLVESGGGLVKPGGSLRLSCAASGFAFSSNDMSWVRQAPGKGLEWVATISGGGINTYYPDSVKGRFTISRDNAKNTLYLQMNSLRAEDTAVYYCARRSNYAWFAYWGQGTPVTVSA
VL: DIQLTQSPASLAVSLGQRATISCRASESVDTYGISFMNWFQQKPGQPPKLLISPNQGSGVPARFSGSGSGTDFTLTINSLEAEDTAVYFCQQSKEVPWTFGGGTKLEIK
notes: also called version 5 (V5) antibody
